# Source: US20220306762A1 (CRYSTAL BIOSCIENCE, published 2022)
# T1: His-tagged mouse CD38 (ACRO Biosystems #CD8-M5223) (mouse, UniProt P56528 45-304)
# T1 construct: bought recombinant protein with His tag; also called Murine
# T1 sequence (looked up): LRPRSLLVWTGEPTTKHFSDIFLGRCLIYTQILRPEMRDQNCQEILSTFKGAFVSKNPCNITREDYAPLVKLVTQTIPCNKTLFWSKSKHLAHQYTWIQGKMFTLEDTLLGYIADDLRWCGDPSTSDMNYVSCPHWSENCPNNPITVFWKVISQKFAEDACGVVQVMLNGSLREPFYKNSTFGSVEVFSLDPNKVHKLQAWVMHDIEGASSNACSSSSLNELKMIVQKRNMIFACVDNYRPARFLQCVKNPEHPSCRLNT
# T2: murine CD38 on transiently transfected Expi293 cells (Origene MC208001) (murine, UniProt P56528 1-304)
# T2 construct: whole, on cells; also called Murine (FACs)
# T2 sequence (looked up): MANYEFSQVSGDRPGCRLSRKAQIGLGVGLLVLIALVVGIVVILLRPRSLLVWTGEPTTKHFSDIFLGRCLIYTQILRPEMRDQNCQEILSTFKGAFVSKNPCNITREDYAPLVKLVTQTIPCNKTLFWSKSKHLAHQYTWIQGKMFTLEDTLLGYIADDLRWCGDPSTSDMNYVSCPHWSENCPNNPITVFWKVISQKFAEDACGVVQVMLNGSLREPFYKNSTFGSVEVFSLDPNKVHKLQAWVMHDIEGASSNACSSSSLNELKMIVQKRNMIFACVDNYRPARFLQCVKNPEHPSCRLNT
# Columns and labels:
# [1] = target: T3, His-tagged cynomolgus monkey CD38 (ACRO Biosystems, CD8-05223 [sic]) (cynomolgus monkey, UniProt Q5VAN0 43-301); experiment: SPR (second run), His-tagged CD38
# T3 construct: bought protein; used for ELISA coating and as SPR analyte; not shown: His tag
# [2] = target: T4, His-tagged human CD38 (ACRO Biosystems CD8-H5224) (human, UniProt P28907 43-300); experiment: SPR (second run), His-tagged CD38
# T4 construct: bought protein; used for ELISA coating and as SPR analyte; not shown: His tag
# [3] = target: T5, His-tagged cynomolgus monkey CD38 (ACRO Biosystems cat #CD8-05223) (cynomolgus monkey, UniProt Q5VAN0 43-301); experiment: SPR, captured scFv-Fc, His-CD38 analyte;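 also: SPR on a Carterra LSA, scFv-Fc captured by anti-human Fc on HC30M chip, His-tagged CD38 (human, mouse, cynomolgus) flowed as analyte in eight 1:2 steps from 400 nM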
# T5 construct: bought recombinant protein with His tag
# [4] = target: T1, His-tagged mouse CD38 (ACRO Biosystems …); experiment: SPR, captured scFv-Fc, His-CD38 analyte;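 also: SPR on a Carterra LSA, scFv-Fc captured by anti-human Fc on HC30M chip, His-tagged CD38 (human, mouse, cynomolgus) flowed as analyte in eight 1:2 steps from 400 nM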
# [5] = target: T6, His-tagged human CD38 (ACRO Biosystems cat #CD8-H5224) (human, UniProt P28907 43-300); experiment: SPR, captured scFv-Fc, His-CD38 analyte;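 also: SPR on a Carterra LSA, scFv-Fc captured by anti-human Fc on HC30M chip, His-tagged CD38 (human, mouse, cynomolgus) flowed as analyte in eight 1:2 steps from 400 nM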
# T6 construct: bought recombinant protein with His tag
# [6] = target: T7, human CD38 on transiently transfected Expi293 cells (Origene #SC321273) (human, UniProt P28907 1-300); experiment: flow cytometry, transfected Expi293 cells;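 also: antibody binding to Expi293 cells transiently expressing human or murine CD38, antibodies applied at 10 ug/ml for 60 min on ice, read by flow cytometry as percent gated cells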
# T7 construct: whole, on cells; also called Human (FACs)
# [7] = target: T2, murine CD38 on transiently transfected …; experiment: flow cytometry, transfected Expi293 cells;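 also: antibody binding to Expi293 cells transiently expressing human or murine CD38, antibodies applied at 10 ug/ml for 60 min on ice, read by flow cytometry as percent gated cells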
# [8] = target: T5, His-tagged cynomolgus monkey CD38 (ACRO …); experiment: ELISA, coated His-CD38
# [9] = target: T1, His-tagged mouse CD38 (ACRO Biosystems …); experiment: ELISA, coated His-CD38
# [10] = target: T6, His-tagged human CD38 (ACRO Biosystems …); experiment: ELISA, coated His-CD38
# [11] = target: T3, His-tagged cynomolgus monkey CD38 (ACRO …); experiment: SPR, IgG
# [12] = target: T4, His-tagged human CD38 (ACRO Biosystems …); experiment: SPR, IgG
Kd [1] [nM],Kd [2] [nM],Binder,also measured
0.72,0.82,"40769p1.1.A2 (scFv, V domains shown) VH: EVQLLESGGGLVQPGGSLRLSCAASGFLFDDYGMSWVRQAPGKGLEWVSAISYKGGSTYYADSVKGRFTISRDNSKNTLYLQMSSLRAEDTAVYYCAKDHKWNYYGMDVWGQGTTVTVSS VL: QSVLTQPPSASGTPGQRVTISCSGSTSNIGNDNYVSWYQQLPGTAPRLLIYKDDQRPSGVPDRFSGSKSGTSASLAISGLQSEDEADYYCGTWDDRLNAWVFGGGTKLTVL",–
15.3,2.81,"40769p1.1.G12 (scFv, V domains shown) VH: EVQLLESGGGLVQPGGSLRLSCAASGFTFDDYVMSWVRQAPGKGLEWVSEISESDGSNKYYADSVKGRFIISRDNSKNTLYLQMNSLRAEDTAVYYCARLEPEKYYGMDVWGQGTTVTVSS VL: QSVLTQPPSASGTPGQRVTISCSGSNSNIGNNLVSWYQQLPGTAPKLLIYRHDHRPSGVPDRFSGSKSGTSASLAISGLQSEDEADYYCATWDDSLNGRAFGGGTKLTVL",–
8.27,8.85,"40769p1.2.F9 (scFv, V domains shown) VH: EVQLLESGGDLVQPGGSLRLSCGASGFTFSDHYMSWVRQAPGKGLEWVADISARGSNTWYADSVKGRFTISRDNSENTLYLQMNSLRAEDTAVYYCAKNWNYNYGMDVWGQGTTVTVSS VL: QSVLTQAPSASGTPGQRVTISCSGSSIQNNYVSWYQQLPGTAPKLLIYRNFERPSGVPDRFSASKSGTSASLAISGLQSGDEADYYCASWDDSLNWVFGGGTKLTVL",–
8.31,6.99,"40769p1.1.E2 (scFv, V domains shown) VH: EVLLLESGGGLVQPGGSLRLSCAASGFTFSDYWMSWVRQAPGKGLEWVSTISISAGIIYYADSVKGRFTISRDNSKNTLYLQMNSLRAEDTAVYYCAKDNWNDYYGMDVWGQGTTVTVSS VL: QSVLTQPPSASGTPGQRVTMSCSGNNQNIRDNYVYWYQQVPGTAPKLLIYKDDQRPSGVPDRFSGSKSGTSASLAISGLQSEDEADYYCATWDGSLKARVFGGGTKLTVL",–

# More lines, now with the values behind:
Binder,Kd [1] [nM],Kd [2] [nM],also measured
"40769p1.1.G5 (scFv, V domains shown) VH: EVQLLESGGGFVQPGGSLRLSCAASGFNFNNAWMNWVRQAPGKGLEWVGIINGDGTNTYYADSVKGRFTISRDNSKNTLYLQMSSLRAEDTAIYYCARDNKLNDYYYAMDVWGQGTTVTV VL: QSVLTQPSSASGTPGQRVTISCSGGSSNIHANYVYWYQQLPGTAPKLLIYRNSQRPSGVPDRFSGSKSGTSASLAISGLQSEDEADYYCGTWDNILNVWVFGGGTKLTVL",28.1,7.56,–
"40769p1.1.A4 (scFv, V domains shown, tested as scFv-Fc supernatant) VH: EVQLLESGGGLVQPGGSLRLSCTASGITFSRFNMFWVRQAPGKGLEFVASIRDDGSWTYYADSVKGRFTISRDNSKNTLYLQMNSLRAEDTAVYYCAKDYNSKDFIYHYVMDVWGQGTTVTVSS VL: QSVLTQPPSASGTPGQRVTISCSGRNSNIGNNVVNWYQQLPGTAPKLLIYKDDQRPSGVPDRFSGSKSGTSASLAISGLQSEDEADYYCSTWDDSLNGWVFGGGTKLTVL",–,–,Kd [3]: 0.106 nM; Kd [4]: 675000 nM; Kd [5]: 54400 nM; FACs 10 ug/ml (percent gated) [6]: 69.9%; FACs 10 ug/ml (percent gated) [7]: 3.09%; ELISA 1 ug/ml [8]: 1.78; ELISA 1 ug/ml [9]: 0.049; ELISA 1 ug/ml [10]: 1.67
"40769p2.2.G3 IgG (antibody, V domains shown, IgG) VH: EVQLLESGGGLVQPGGSLRLSCTASGITFSRFNMFWVRQAPGKGLEFVASIRDDGSWTYYADSVKGQFTISRDNSKNTLYLQMNSLRAEDTAVYYCAKDYSSKDFIYHYVMDVWGQGTTVTVSS VL: QSVLTQPPSASGTPGQRVTISCSGRNSNIGNNVVNWYQQLPGTAPKLLIYRNQERPSGVPDRFSGSKSGTSASLAISGLQSEDEADYYCASWDDSLNAWVFGRGTKLTVL",–,–,Kd [11]: 205 nM; Kd [12]: 50.4 nM
"40769p1.2.B10 (scFv, V domains shown, tested as scFv-Fc supernatant) VH: EVQLLESGGGLVQPGGSLRLSCPASGFDFSSYWMTWVRQAPGKGLEWVSTITDSGGRAWYADSVRGRFTISRDNSKNTLYLQMNSLRAEDTAVYYCARDTPKTYYYYAMDVWGQGTTVTV VL: QSALTQPPSASGTPGQRVTISCSGSSSNIQYSYVSWYQQLPGTAPKLLIYNNVQRPSGVPDRFSGSKSGTSASLAISGLQSEDEADYYCATWDESLLGLWVFGGGTKLTVL",–,–,Kd [3]: 18 nM; Kd [4]: 56300 nM; Kd [5]: 1.43 nM; FACs 10 ug/ml (percent gated) [6]: 86.3%; FACs 10 ug/ml (percent gated) [7]: 4.81%; ELISA 1 ug/ml [8]: 1.68; ELISA 1 ug/ml [9]: 1.14; ELISA 1 ug/ml [10]: 1.7
"40769p1.1.B8 (scFv, V domains shown) VH: EVQLLESGGGLVQPGGSLRLSCAASGFTFEDYAMSWVRQAPGKGLEWVSVISSKGGSTSNADSVKGRFTISRDNSKNTLYLQMNSLRAEDTAVYYCAKGMERQYYSYNAMDVWGQGTTVTVSS VL: QSVLTQPPSASGTPGQRVTISCSGSNSNIDVDYVYWYQQLPGTAPRLLIYKDDQRPSGVPDRFSGSKSGTSASLAISGLQSEDEADYYCATWDDNLNSWLFGGGTKLTVL",3.29,0.25,–
"40769p1.2.E3 (scFv, V domains shown) VH: EVQLLESGGDLVQPGGSLRLSCGASGFTFSDHYMSWVRQAPGKGLEWVADISARGSNTWYADSVKGRFTISRDNSENTLYLQMNSLRAEDTAVYYCAKNWNYNYGMDVWGQGTTVTVSS VL: QSVLTQAPSASGTPGQRVTISCSGSSIQNNYVSWYQQLPGTAPKLLIYRNFERPSGVPDRFSASKSGTSASLAISGLQSEDEADYYCASWDDSLNWVFGGGTKLTVL",4.9,6.74,–
"40769p1.2.B4 (scFv, V domains shown) VH: EVQLLESGGDLVQPGGSLRLSCGASGFTFSDHYMSWVRQAPGKGLEWVADISARGSNTWYADSVKGRFTISRDNSENTLYLQMNSLRAEDTAVYYCAKNWNYNYGMDVWGHGTTVTVSS VL: QSVLTQAPSASGTPGQRVTISCSGSSIQNNYVSWYQQLPGTAPKLLIYRNFERPSGVPDRFSASKSGTSASLAISGLQSEDEADYYCASWDDSLNWVFGGGTKLTVL",7.84,8.02,–
"40769p1.1.G10 (scFv, V domains shown) VH: EVQLLESGGGLVQPGGSLRLSCAASGFTFSDYWMNWVRQAPGKGLEWVSTISSGGSMIYHADSVKGRFTISRDNSKNTLYLQMNSLRPEDTAVYYCAKDNWNDYYGMDVWGQGTTVTVSS VL: QSVLTQPPSASGTPGQRVNISCSGSSSNIRYNYVYWYQQVPGTAPKLLIYKDDQRPSGVPDRFSGSESGTSASLAISGLQSEDEADYYCATWDGSLNARVFGGGTKLTVL",72.1,1.71,–
"40769p1.1.H1 (scFv, V domains shown) VH: EVQLLESGGGLVQPGGSLRLSCAASGFTFSDYWMNWVRQAPGKGLEWVSTISSGGSMIYHADSVKGRFTISRDNSKNTLYLQMNSLRPEDTAVYYCAKDNWNDYYGMDVWGQGTTVTVSS VL: QSVLTQPPSASGTPGQRVNISCSGSSSNIRYNYVYWYQQVPGTAPKLLIYKDDQRPSGVPDRFSGSKSGTSASLAISELQSEDEADYYCATWDGSLNARVFGGGTKLTVL",59.9,58.5,–
"40617p1.1.F1 (scFv, V domains shown) VH: KVQLLESGGGLVQPGGSLRLSCAASGFTFSSYSMTWVRQAPGKGLEWVSRIYNGGSTYYADSVKGRFTISRDNSKNTLYLQMNSLRAEDTAVYYCARDTYAIDVWGQGTTVTVSS VL: EIVLTQSPATLSVSPGERATLSCRASQGIAGNLAWYQQKPGQAPRLLIYAASNRATGIPARFSGSGSGTDFTLTISSLQSEDFAVYYCQHYYDWPPYSFGGGTKVEIK",786,119,–
